Residue numbers refer to the chain shown, from its start. Where no end group is shown, it is not given here. The star is where a group is joined. Biotin = O=C1N[C@H]2[C@H](CS[C@H]2CCCCC(=O)*)N1
Legend:
ribonucleoprotein (RNP) [1] = assay: AtheNA Multi-Lyte ANA, Ab at 28.3 ug/ml
[2] = biological target: systemic lupus erythematosus autoantigen SSA; assay: AtheNA Multi-Lyte ANA, Ab at 28.3 ug/ml
Sm (sphingomyelin) [3] = biological target: T1, Sm (sphingomyelin); assay: AtheNA Multi-Lyte ANA, Ab at 28.3 ug/ml
T1 construct: in an ANA panel of nuclear antigens Sm is usually the Smith ribonucleoprotein antigen; Kept, but see recheck

ribonucleoprotein (RNP) [4] = assay: AtheNA Multi-Lyte ANA, Ab at 7.075 ug/ml
[5] = biological target: systemic lupus erythematosus autoantigen SSA; assay: AtheNA Multi-Lyte ANA, Ab at 7.075 ug/ml
Sm (sphingomyelin) [6] = biological target: T1, Sm (sphingomyelin); assay: AtheNA Multi-Lyte ANA, Ab at 7.075 ug/ml
ribonucleoprotein (RNP) [7] = assay: AtheNA Multi-Lyte ANA, Ab at 3.538 ug/ml
[8] = biological target: systemic lupus erythematosus autoantigen SSA; assay: AtheNA Multi-Lyte ANA, Ab at 3.538 ug/ml
Sm (sphingomyelin) [9] = biological target: T1, Sm (sphingomyelin); assay: AtheNA Multi-Lyte ANA, Ab at 3.538 ug/ml
[10] = biological target: T2, GPPPPIDNGDITSFP(GGGK-biotin); assay: ELISA: biotinylated peptide captured on immobilized Neutravidin, antibody at 0.5 µg/ml, anti-human IgG-HRP/ABTS, OD 405 nm
T2 construct: also called biotinylated 15-mer peptide; biotinylated 19-mer
T2 peptide: GPPPPIDNGDITSFPGGGK(Biotin)

ribonucleoprotein (RNP) [11] = assay: AtheNA Multi-Lyte ANA, Ab at 16.7 ug/ml
[12] = biological target: systemic lupus erythematosus autoantigen SSA; assay: AtheNA Multi-Lyte ANA, Ab at 16.7 ug/ml
Sm (sphingomyelin) [13] = biological target: T1, Sm (sphingomyelin); assay: AtheNA Multi-Lyte ANA, Ab at 16.7 ug/ml
ribonucleoprotein (RNP) [14] = assay: AtheNA Multi-Lyte ANA, Ab at 8.35 ug/ml
[15] = biological target: systemic lupus erythematosus autoantigen SSA; assay: AtheNA Multi-Lyte ANA, Ab at 8.35 ug/ml
Sm (sphingomyelin) [16] = biological target: T1, Sm (sphingomyelin); assay: AtheNA Multi-Lyte ANA, Ab at 8.35 ug/ml
[17] = biological target: T3, Complement Factor H (CFH) protein, full-length (human, UniProt P08603 19-1231); assay: immunoblot, SDS-PAGE under non-reducing conditions, antibody at 0.5 µg/ml, anti-human IgG-HRP, chemiluminescence; lane numbers as in Table 10
T3 construct: also called full-length CFH; native CFH
T3 sequence (P08603 19-1231 limits assumed): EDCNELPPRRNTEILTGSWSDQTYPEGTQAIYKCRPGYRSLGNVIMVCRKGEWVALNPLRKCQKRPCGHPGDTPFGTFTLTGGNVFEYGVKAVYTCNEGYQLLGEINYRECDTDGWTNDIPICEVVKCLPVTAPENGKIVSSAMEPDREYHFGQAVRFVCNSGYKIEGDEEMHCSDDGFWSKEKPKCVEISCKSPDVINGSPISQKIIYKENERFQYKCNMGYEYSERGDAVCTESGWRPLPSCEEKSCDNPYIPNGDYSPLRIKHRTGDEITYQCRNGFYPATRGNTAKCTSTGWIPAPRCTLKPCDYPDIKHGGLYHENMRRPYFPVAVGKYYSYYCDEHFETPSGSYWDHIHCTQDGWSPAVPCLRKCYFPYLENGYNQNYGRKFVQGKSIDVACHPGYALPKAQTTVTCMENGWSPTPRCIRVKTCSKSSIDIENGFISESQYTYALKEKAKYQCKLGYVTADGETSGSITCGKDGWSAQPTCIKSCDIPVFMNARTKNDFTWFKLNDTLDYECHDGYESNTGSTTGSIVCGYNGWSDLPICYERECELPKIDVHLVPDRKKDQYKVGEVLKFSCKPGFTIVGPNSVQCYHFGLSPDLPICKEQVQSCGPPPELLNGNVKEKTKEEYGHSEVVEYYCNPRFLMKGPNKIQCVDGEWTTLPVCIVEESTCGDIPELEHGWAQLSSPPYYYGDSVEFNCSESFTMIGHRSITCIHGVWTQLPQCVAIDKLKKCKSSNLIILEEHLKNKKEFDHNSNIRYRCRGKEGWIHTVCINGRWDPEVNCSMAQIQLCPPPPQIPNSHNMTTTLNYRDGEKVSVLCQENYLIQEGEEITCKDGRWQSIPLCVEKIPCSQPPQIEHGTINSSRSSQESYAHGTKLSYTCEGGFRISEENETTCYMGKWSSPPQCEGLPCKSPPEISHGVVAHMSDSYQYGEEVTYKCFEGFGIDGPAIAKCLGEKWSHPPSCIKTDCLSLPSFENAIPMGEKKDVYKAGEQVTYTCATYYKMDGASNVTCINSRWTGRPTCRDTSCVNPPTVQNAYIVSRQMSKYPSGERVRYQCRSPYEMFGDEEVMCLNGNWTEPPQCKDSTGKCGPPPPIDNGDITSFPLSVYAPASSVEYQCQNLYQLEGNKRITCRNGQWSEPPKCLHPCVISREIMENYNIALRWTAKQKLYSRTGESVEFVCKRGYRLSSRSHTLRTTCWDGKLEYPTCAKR

[18] = biological target: T4, 15-mer peptide GPPPPIDNGDITSFP (SEQ ID NO: 114) (human); assay: assay and antigen not given; Example 10, epitope mapping on the 15-mer peptide
T4 construct: Immobilized for SPR; also called parent peptide
T4 peptide: GPPPPIDNGDITSFP

ribonucleoprotein (RNP) [19] = assay: AtheNA Multi-Lyte ANA, Ab at 2.088 ug/ml
[20] = biological target: systemic lupus erythematosus autoantigen SSA; assay: AtheNA Multi-Lyte ANA, Ab at 2.088 ug/ml
Sm (sphingomyelin) [21] = biological target: T1, Sm (sphingomyelin); assay: AtheNA Multi-Lyte ANA, Ab at 2.088 ug/ml
ribonucleoprotein (RNP) [22] = assay: AtheNA Multi-Lyte ANA, Ab at 4.175 ug/ml
[23] = biological target: systemic lupus erythematosus autoantigen SSA; assay: AtheNA Multi-Lyte ANA, Ab at 4.175 ug/ml
Sm (sphingomyelin) [24] = biological target: T1, Sm (sphingomyelin); assay: AtheNA Multi-Lyte ANA, Ab at 4.175 ug/ml
[25] = biological target: T5, reduced form of Complement Factor H (CFH), treated with TCEP (human, UniProt P08603 19-1231, disulfides reduced with 10 mM TCEP); assay: immunoblot, SDS-PAGE under reducing conditions, antibody at 0.5 µg/ml, anti-human IgG-HRP, chemiluminescence; lane numbers as in Table 10
T5 construct: also called reduced CFH; reduced form of CFH
T5 sequence (P08603 19-1231 limits assumed): as above

ribonucleoprotein (RNP) [26] = assay: AtheNA Multi-Lyte ANA, Ab at 50 ug/ml;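 note: monoclonal antibodies probed against a nuclear autoantigen panel (SSA, SSB, Sm, RNP, Scl-70, Jo-1, dsDNA, CentB, histones), with anti-HIV 4E10 and palivizumab as control antibodies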
[27] = biological target: systemic lupus erythematosus autoantigen SSA; assay: AtheNA Multi-Lyte ANA, Ab at 50 ug/ml;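 note: monoclonal antibodies probed against a nuclear autoantigen panel (SSA, SSB, Sm, RNP, Scl-70, Jo-1, dsDNA, CentB, histones), with anti-HIV 4E10 and palivizumab as control antibodies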
[28] = biological target: T6, systemic lupus erythematosus autoantigen SSB (UniProt P05455 1-408, limits assumed); assay: AtheNA Multi-Lyte ANA, Ab at 50 ug/ml;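 note: monoclonal antibodies probed against a nuclear autoantigen panel (SSA, SSB, Sm, RNP, Scl-70, Jo-1, dsDNA, CentB, histones), with anti-HIV 4E10 and palivizumab as control antibodies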
T6 sequence (looked up): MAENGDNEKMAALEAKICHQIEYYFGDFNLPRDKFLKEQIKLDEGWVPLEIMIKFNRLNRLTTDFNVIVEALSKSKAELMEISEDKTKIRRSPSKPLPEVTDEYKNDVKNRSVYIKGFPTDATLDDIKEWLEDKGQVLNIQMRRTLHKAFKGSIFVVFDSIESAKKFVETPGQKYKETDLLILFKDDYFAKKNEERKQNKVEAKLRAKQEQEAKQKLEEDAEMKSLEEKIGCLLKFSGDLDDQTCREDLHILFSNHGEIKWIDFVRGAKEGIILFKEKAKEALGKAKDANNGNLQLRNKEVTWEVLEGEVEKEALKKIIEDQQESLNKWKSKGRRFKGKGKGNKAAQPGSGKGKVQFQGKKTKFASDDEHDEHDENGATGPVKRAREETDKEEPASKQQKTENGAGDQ

[29] = biological target: T7, histidine-tRNA ligase (Jo-1) (UniProt P12081 2-509); assay: AtheNA Multi-Lyte ANA, Ab at 50 ug/ml;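 note: monoclonal antibodies probed against a nuclear autoantigen panel (SSA, SSB, Sm, RNP, Scl-70, Jo-1, dsDNA, CentB, histones), with anti-HIV 4E10 and palivizumab as control antibodies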
T7 sequence (looked up): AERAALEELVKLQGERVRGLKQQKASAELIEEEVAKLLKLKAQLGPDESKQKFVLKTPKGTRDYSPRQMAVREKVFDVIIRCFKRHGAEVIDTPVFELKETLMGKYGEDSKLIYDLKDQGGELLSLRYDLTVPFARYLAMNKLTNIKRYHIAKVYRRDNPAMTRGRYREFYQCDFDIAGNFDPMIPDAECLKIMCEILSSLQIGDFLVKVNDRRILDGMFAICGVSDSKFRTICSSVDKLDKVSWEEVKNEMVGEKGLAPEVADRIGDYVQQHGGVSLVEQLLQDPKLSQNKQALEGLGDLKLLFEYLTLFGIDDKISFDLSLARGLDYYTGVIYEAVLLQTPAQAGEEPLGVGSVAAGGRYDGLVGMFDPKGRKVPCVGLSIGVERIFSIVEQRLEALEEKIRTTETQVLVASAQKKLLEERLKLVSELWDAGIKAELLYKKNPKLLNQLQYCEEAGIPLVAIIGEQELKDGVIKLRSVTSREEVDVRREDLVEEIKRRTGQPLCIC

Sm (sphingomyelin) [30] = biological target: T1, Sm (sphingomyelin); assay: AtheNA Multi-Lyte ANA, Ab at 50 ug/ml
[31] = biological target: T8, sclerosis autoantigen (Scl-70) (UniProt P11387 2-765, limits assumed); assay: AtheNA Multi-Lyte ANA, Ab at 50 ug/ml
T8 sequence (looked up): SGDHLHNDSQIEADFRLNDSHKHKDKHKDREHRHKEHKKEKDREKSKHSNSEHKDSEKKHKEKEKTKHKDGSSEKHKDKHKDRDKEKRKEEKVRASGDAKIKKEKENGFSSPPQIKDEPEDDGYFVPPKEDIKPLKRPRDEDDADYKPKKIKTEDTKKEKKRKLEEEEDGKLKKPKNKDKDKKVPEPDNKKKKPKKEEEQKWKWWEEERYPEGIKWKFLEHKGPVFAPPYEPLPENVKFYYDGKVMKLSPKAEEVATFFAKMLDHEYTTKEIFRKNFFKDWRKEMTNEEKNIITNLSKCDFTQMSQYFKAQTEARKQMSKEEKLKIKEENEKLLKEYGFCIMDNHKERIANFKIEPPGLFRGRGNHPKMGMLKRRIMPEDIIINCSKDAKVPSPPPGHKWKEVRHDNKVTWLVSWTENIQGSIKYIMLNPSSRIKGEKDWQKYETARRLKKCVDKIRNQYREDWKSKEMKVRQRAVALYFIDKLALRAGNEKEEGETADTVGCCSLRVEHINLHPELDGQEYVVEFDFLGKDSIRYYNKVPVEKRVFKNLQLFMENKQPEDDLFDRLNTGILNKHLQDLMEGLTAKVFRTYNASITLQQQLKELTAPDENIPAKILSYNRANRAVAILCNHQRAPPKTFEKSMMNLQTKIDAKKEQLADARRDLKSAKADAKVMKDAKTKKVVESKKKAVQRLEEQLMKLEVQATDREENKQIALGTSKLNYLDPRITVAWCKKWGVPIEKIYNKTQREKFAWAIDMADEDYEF

ribonucleoprotein (RNP) [32] = assay: AtheNA Multi-Lyte ANA, Ab at 12.5 ug/ml;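 note: monoclonal antibodies screened for binding to a panel of nuclear autoantigens (SSA, SSB, Sm, RNP, Scl-70, Jo-1, dsDNA, CentB, histones), with anti-HIV and anti-RSV antibodies as controls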
[33] = biological target: systemic lupus erythematosus autoantigen SSA; assay: AtheNA Multi-Lyte ANA, Ab at 12.5 ug/ml;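 note: monoclonal antibodies screened for binding to a panel of nuclear autoantigens (SSA, SSB, Sm, RNP, Scl-70, Jo-1, dsDNA, CentB, histones), with anti-HIV and anti-RSV antibodies as controls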
[34] = biological target: T6, systemic lupus erythematosus …; assay: AtheNA Multi-Lyte ANA, Ab at 12.5 ug/ml;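 note: monoclonal antibodies screened for binding to a panel of nuclear autoantigens (SSA, SSB, Sm, RNP, Scl-70, Jo-1, dsDNA, CentB, histones), with anti-HIV and anti-RSV antibodies as controls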
[35] = biological target: T7, histidine-tRNA ligase (Jo-1); assay: AtheNA Multi-Lyte ANA, Ab at 12.5 ug/ml;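 note: monoclonal antibodies screened for binding to a panel of nuclear autoantigens (SSA, SSB, Sm, RNP, Scl-70, Jo-1, dsDNA, CentB, histones), with anti-HIV and anti-RSV antibodies as controls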
Sm (sphingomyelin) [36] = biological target: T1, Sm (sphingomyelin); assay: AtheNA Multi-Lyte ANA, Ab at 12.5 ug/ml
[37] = biological target: T8, sclerosis autoantigen (Scl-70); assay: AtheNA Multi-Lyte ANA, Ab at 12.5 ug/ml
ribonucleoprotein (RNP) [38] = assay: AtheNA Multi-Lyte ANA, Ab at 6.25 ug/ml;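 note: monoclonal antibodies screened for reactivity against a panel of nuclear autoantigens, with an anti-HIV and an anti-RSV monoclonal antibody serving as controls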
[39] = biological target: systemic lupus erythematosus autoantigen SSA; assay: AtheNA Multi-Lyte ANA, Ab at 6.25 ug/ml;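 note: monoclonal antibodies screened for reactivity against a panel of nuclear autoantigens, with an anti-HIV and an anti-RSV monoclonal antibody serving as controls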
[40] = biological target: T6, systemic lupus erythematosus …; assay: AtheNA Multi-Lyte ANA, Ab at 6.25 ug/ml;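 note: monoclonal antibodies screened for reactivity against a panel of nuclear autoantigens, with an anti-HIV and an anti-RSV monoclonal antibody serving as controls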
[41] = biological target: T7, histidine-tRNA ligase (Jo-1); assay: AtheNA Multi-Lyte ANA, Ab at 6.25 ug/ml;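 note: monoclonal antibodies screened for reactivity against a panel of nuclear autoantigens, with an anti-HIV and an anti-RSV monoclonal antibody serving as controls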
Sm (sphingomyelin) [42] = biological target: T1, Sm (sphingomyelin); assay: AtheNA Multi-Lyte ANA, Ab at 6.25 ug/ml
[43] = biological target: T8, sclerosis autoantigen (Scl-70); assay: AtheNA Multi-Lyte ANA, Ab at 6.25 ug/ml

B1: Ab7970 (antibody, IgG1, V domains shown)
VH: LVESGGGVVQPGRSLRLSCAASGLTFSFYNFHWVRQTPGKGLEWVAGISYDATRTNYAGSVTGRFTISRDNSKKMLYLQMSSLGPQDTAVYHCARDRSDGQLHKVAFDSWGQGALVTVSS
VL: MTQSPDSLTLSLGERATINCRSSRTVLYRSNNKNYLAWYQHKPGQPPKLLMSWASTRETGVPDRFSGSGSGTHFTLTITSLQPEDVAVYYCQQYYSPPWTFGQGTKVEIR
notes: IgG1 heavy chain backbone and kappa constant; also called clone 18; pH007970/pK005991_6004
Binder B1 has an AtheNA signal (ribonucleoprotein (RNP) [1]) of 56, an AtheNA signal [2] of 165 and an AtheNA signal (Sm (sphingomyelin) [3]) of 22. The AtheNA signal (ribonucleoprotein (RNP) [4]) was 44, the AtheNA signal [5] was 120 and the AtheNA signal (Sm (sphingomyelin) [6]) was 12. For the same binder, the AtheNA signal (ribonucleoprotein (RNP) [7]) was 34, the AtheNA signal [8] was 84 and the AtheNA signal (Sm (sphingomyelin) [9]) was 10. B1: binds [10].

B2: Ab7979 (antibody, IgG1, V domains shown)
VH: LVESGGGVVQPGKSLRLSCVASGFTFSTYGMHWVRQAPGKGLEWVAVMSFDGKTKYYADSVKGRFTISRDNPKNTLYLQMNSLRSEDTAVYYCAKGGAAAAVFDSWGQGILLTVSS
VL: MTQSPNSLAVSLGGRATINCKTSQSILYRSNNKNYLAWYQHKPGQPPKLLIYWASTRESRVPDRFSGSGSRTDFTLTISGLQAEDVAVYYCQQYYNPPWTFGQGTKVEIK
notes: Recombinant human antibody with IgG1 heavy chain backbone and kappa light chain constant; they begin at LVESGGG and MTQSP; also called Ab7979/239i; mAb 7979
B2 showed an AtheNA signal (ribonucleoprotein (RNP) [11]) of 40, an AtheNA signal [12] of 144 and an AtheNA signal (Sm (sphingomyelin) [13]) of 92. It also gave an AtheNA signal (ribonucleoprotein (RNP) [14]) of 38, an AtheNA signal [15] of 146 and an AtheNA signal (Sm (sphingomyelin) [16]) of 77. The binding result [10] was “binds”, the binding result [17] was “binds” and the EC50 [18] was 0.0122 µg/mL. It also gave an AtheNA signal (ribonucleoprotein (RNP) [19]) of 29, an AtheNA signal [20] of 119 and an AtheNA signal (Sm (sphingomyelin) [21]) of 45. For the same binder, the AtheNA signal (ribonucleoprotein (RNP) [22]) was 36, the AtheNA signal [23] was 140 and the AtheNA signal (Sm (sphingomyelin) [24]) was 63. B2: binds [25].

B3: Ab7960/293i (antibody, IgG1, V domains shown)
VH: B2 VH with T25S, Q108P
VL: B2 VL with T22A, P43A, R60G, D63E, S79N
notes: Recombinant human antibody with IgG1 heavy chain backbone and kappa light chain constant; they begin at LVESGGG and MTQSP; also called mAb 7960; mAb7960
In the case of B3, the AtheNA signal (ribonucleoprotein (RNP) [26]) is reported as 4, the AtheNA signal [27] is reported as 6 and the AtheNA signal [28] is reported as 8. It also gave an AtheNA signal [29] of 5, an AtheNA signal (Sm (sphingomyelin) [30]) of 2 and an AtheNA signal [31] of 3. It also gave an AtheNA signal (ribonucleoprotein (RNP) [32]) of 3, an AtheNA signal [33] of 4 and an AtheNA signal [34] of 8. For the same binder, the AtheNA signal [35] was 4, the AtheNA signal (Sm (sphingomyelin) [36]) was 4 and the AtheNA signal [37] was 3. The binding result [10] was “binds”, the binding result [17] was “binds” and the EC50 [18] was 0.00782 µg/mL. The AtheNA signal (ribonucleoprotein (RNP) [38]) was 2, the AtheNA signal [39] was 2 and the AtheNA signal [40] was 7. The AtheNA signal [41] was 2, the AtheNA signal (Sm (sphingomyelin) [42]) was 2 and the AtheNA signal [43] was 1. B3: binds [25].

From patent US20190315842A1 (DUKE UNIVERSITY, published 2019)
